The record followed here is publication PMC5992146.

As a reminder, the Kd is a measure of binding affinity in units of concentration.

Assay [1] addresses actin (UniProt P68135). Put plainly: co-sedimentation; MYO3A (0.5 µM) equilibrated with actin (0-60 µM) in KMg50 buffer (50 mM KCl, 1 mM EGTA, 1 mM MgCl2, 10 mM imidazole pH 7.0, 1 mM DTT) with ATP regeneration system, 1 mM ATP added, centrifuged 10 min at 25 °C; fraction bound from GFP fluorescence of the supernatant and from Coomassie SDS-PAGE, hyperbolic fit; steady-state actin affinity (K_Actin) in the presence of ATP.

Assay [2] deals with actin (UniProt P68135).

Regarding “MYO3AΔK 2IQ c-GFP L697W (from UniProt Q8NEV4-1 1-1616) (domain or fragment)”, the Kd in the assay with actin [1] came to 2.21 µM. The substance also returned a K (ATPase): actin concentration at which the steady-state actin-activated ATPase activity is one-half maximal (KMg50 buffer, 25 °C) in the assay with actin [2] below 0.77 µM.
As for “MYO3AΔK 2IQ c-GFP WT (from UniProt Q8NEV4-1 1-1616) (domain or fragment)”, the Kd with actin [1] is 4.69 µM. In the assay with actin [2], this substance yielded a K (ATPase): actin concentration at which the steady-state actin-activated ATPase activity is one-half maximal (KMg50 buffer, 25 °C) of 1.93 µM.
